Measured values: CN116406375A (UNIV SHANGHAI TECHNOLOGY, dated 2023)

Columns and labels:
[1] = target: 野生型SARS-CoV-2假病毒的刺突Δ19 (SARS-CoV-2, UniProt P0DTC2 14-1254); test: cell-based or functional assay
[2] = target: SARS-CoV-2刺突N501Y+D614G假病毒的刺突Δ19 (SARS-CoV-2, UniProt P0DTC2 14-1254); test: cell-based or functional assay
[3] = target: 真SARS-CoV-2英国变异株(B.1.1.7)病毒的刺突 (SARS-CoV-2); test: cell-based or functional assay
[4] = target: SARS-CoV-2 K417N+E484K+N501Y+D614G假病毒的刺突Δ19 (SARS-CoV-2, UniProt P0DTC2 14-1254); test: cell-based or functional assay
[5] = target: SARS-CoV-2 B.1.617.2假病毒的刺突Δ19 (SARS-CoV-2); test: cell-based or functional assay
[6] = target: T1, SARS-CoV-2 S-RBD (SARS-CoV-2, UniProt P0DTC2 319-541); test: BLI, biotinylated S-RBD on SA sensor, 1:1 Langmuir model
T1 construct: also called WT S-RBD; 野生型(WT)S-RBD

[7] = target: T2, K417N+E484K+N501Y RBD (SARS-CoV-2, UniProt P0DTC2 319-541); test: BLI, biotinylated B.1.351 S-RBD on SA sensor, 1:1 Langmuir model
T2 construct: also called B.1.351S-RBD; B.1.351的刺突RBD

Row | Binder | NT50, 假病毒中和 (野生型PSV) [1] [nM] | NT50, 假病毒中和 (N501Y+D614G PSV) [2] [nM] | NT50, 真病毒中和 (B.1.1.7) [3] [nM] | NT50(B.1.351) [4] [nM] | NT50(B.1.617.2) [5] [nM] | Kd [6] [nM] | Kd [7] [nM]
1 | S-E6 (antibody, V domains shown, also called S-E6二聚体; 二聚体S-E6) VH: QVTLRESGPGLVKPSETLSLTCAVSGGSLSSVNYYWSWIRQHPGKGLEWIGYIYYSGSTNYNPSLKSRVTMSLDTSKNQFSLKLSSVTAADTAVYYCATPGAIMGALHIWGQGTLVTVSS VL: QAVLTQPSSASSTPGQRVIISCSGSSSNIGSNTVSWYQQVPGAAPKLLIYFDYRRPSGVPDRFSGTRSGTSASLGISGLQSEDEADYYCAAWDDSLSAWVFGRGTKLTVLG | 0.025 | 0.021 | 1.15 | 0.32 | 0.065 | – | –
2 | S-E6三聚体 (other, also called 三聚体S-E6) heavy (part 1 of 2): QVTLRESGPGLVKPSETLSLTCAVSGGSLSSVNYYWSWIRQHPGKGLEWIGYIYYSGSTNYNPSLKSRVTMSLDTSKNQFSLKLSSVTAADTAVYYCATPGAIMGALHIWGQGTLVTVSS heavy (part 2 of 2): GGGGSGGGGSGGGGSPGSGYIPEAPRDGQAYVRKDGEWVLLSTFLGHHHHHH light: QAVLTQPSSASSTPGQRVIISCSGSSSNIGSNTVSWYQQVPGAAPKLLIYFDYRRPSGVPDRFSGTRSGTSASLGISGLQSEDEADYYCAAWDDSLSAWVFGRGTKLTVLG | – | – | – | – | 0.007 | 0.0101 | 0.58
3 | S-B8 (antibody, V domains shown, also called S-B8二聚体) VH: QVQLVQSGGGLIQPGGSLRLSCAASGFTVSLSHMNWVRQAPGKGLEWVSITYGDGNSDYADSVKGRFTISRDNSKNTLYLQMNSLRAEDTAVYYCAREYYYGMDVWGQGTTVTVSS VL: not shown | – | 0.53 | – | 1.2 | 0.37 | – | –
4 | S-B8三聚体 (other) heavy (part 1 of 2): QVQLVQSGGGLIQPGGSLRLSCAASGFTVSLSHMNWVRQAPGKGLEWVSITYGDGNSDYADSVKGRFTISRDNSKNTLYLQMNSLRAEDTAVYYCAREYYYGMDVWGQGTTVTVSS heavy (part 2 of 2): GGGGSGGGGSGGGGSPGSGYIPEAPRDGQAYVRKDGEWVLLSTFLGHHHHHH light: not shown | – | – | – | 0.35 | 0.15 | – | –
5 | S-D4 (antibody, V domains shown, also called S-D4二聚体; S-D4 IgG4) VH: QVQLQESGGGVVQPGRSLRLSCEVSGFTFSDYGMHWVRQAPGKGLEWVAVIWSEGSTEYYADSVKGRFTISRDNSKDTLYLQMNSLRAEDTAVYYCARPGYPTSTDRSPAAAGARQYYYYGMDVWGQGTTVTVSS VL: NFMLTQPHSVSESPGKTVTISCTRSGGSGAANYVQWYQQRPGSSPTTLIYEDSRRPPGVPDRFSGSVDTSSNSASLTISGLQTEDEADYYCQSYDSSNHVVFGGGTKLTVLG | 0.48 | 0.042 | 1.88 | 0.66 | 0.24 | – | –
